Data published in article PMC8437434, “Hsp40s play complementary roles in the prevention of tau amyloid formation” (eLife, 2021).

Target: T1, full-length tau (2N4R), C322S (UniProt P10636-8 1-441, C322S)
T1 construct: microtubule-associated protein tau, longest splice isoform 2N4R, with C322S; 15N-labelled for NMR; also called 15N-tau; source: E. coli BL21 (DE3), purified (Ni-NTA, tag cleaved, Superdex 75); not shown: His6, N-terminal, cleaved
Assay: NMR titration; 1H-15N HSQC-TROSY of 200 µM 15N-tau, tau^4R or tau^4R P301S/P301L alone and with twofold excess (400 µM) of chaperone; intensity ratios I/I0; 50 mM HEPES pH 7.0, 50 mM KCl, 1 mM DTT, 25 °C; no heparin
Conditions: both partners purified

T1 sequence (P10636 other isoform, or with tags, fused parts or gaps C322S | C322S | C322S C322S): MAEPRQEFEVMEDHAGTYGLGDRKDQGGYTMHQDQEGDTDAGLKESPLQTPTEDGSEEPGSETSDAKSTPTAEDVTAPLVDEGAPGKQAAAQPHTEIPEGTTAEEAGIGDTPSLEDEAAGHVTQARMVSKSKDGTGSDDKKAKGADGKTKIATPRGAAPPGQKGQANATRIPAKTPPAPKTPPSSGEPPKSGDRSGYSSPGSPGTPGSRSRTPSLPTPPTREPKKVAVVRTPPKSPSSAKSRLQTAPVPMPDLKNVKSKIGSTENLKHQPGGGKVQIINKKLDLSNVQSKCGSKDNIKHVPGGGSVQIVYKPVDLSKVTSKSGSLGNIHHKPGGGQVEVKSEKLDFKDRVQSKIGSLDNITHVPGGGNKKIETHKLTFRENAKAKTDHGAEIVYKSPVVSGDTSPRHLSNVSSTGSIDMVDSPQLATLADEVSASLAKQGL

B1: DNAJA2 (natural protein)
chain: not shown
notes: DNAJA2, class A J-domain protein; homodimer (90 kDa dimer as printed); also called class A JDP; Hsp40; source: E. coli BL21 (DE3), purified (Ni-NTA, tag cleaved, Superdex 200); not shown: His6, N-terminal, cleaved
  binding result: binds
